Article PMC4208696

Tests used:
[1] = biological target: Fl–hRyR1(1975–1999)p: hRyR1(1975–1999)p with a 5,6-carboxyfluorescein moiety at the N-terminus (human); assay: fluorescence polarisation
[2] = biological target: Fl–hRyR1(1975–1999)p: hRyR1(1975–1999)p with a 5,6-carboxyfluorescein moiety at the N-terminus (human)
[3] = biological target: Fl–hRyR1(3614–3643)p: hRyR1(3614–3643)p with a 5,6-carboxyfluorescein moiety at the N-terminus (human)
Sequence of Fl–hRyR1(3614–3643)p: hRyR1(3614–3643)p with a 5,6-carboxyfluorescein moiety at the N-terminus (human) (P21817 3614-3643): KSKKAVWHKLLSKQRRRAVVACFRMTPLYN

Sequence of Fl–hRyR1(1975–1999)p: hRyR1(1975–1999)p with a 5,6-carboxyfluorescein moiety at the N-terminus (human) (P21817 1975-1999): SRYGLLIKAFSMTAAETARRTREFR

saturation at ~100 μM CaM [1]: > 85% | stoichiometry N [2]: 1 | stoichiometry N [3]: 1
Substance: full-length mammalian calmodulin (CaM_(1–148)) (from UniProt P0DP23 1-149) (natural protein)
